Laboratory results from patent US20260098059A1 (ENDOMET BIOSCIENCES, published 2026).
Where “and” joins values, the source holds several entries; their conditions need not be identical. Equal values may be shown once. Bridges are numbered along the chain shown (N, C = ends). [ ]: non-standard residue; d: D form. The star is where a group is joined. Chg = N[C@H](C(=O)O)C1CCCCC1; Lauroyl = CCCCCCCCCCCC(=O)*; NMeA = CN[C@@H](C)C(=O)O

Legend:
β-catenin [1] = molecular target: T1, β-catenin (UniProt P35222 134-665, limits assumed, biotinylated in the SPR and plate assays); test: cell-based or functional assay
T1 sequence (looked up): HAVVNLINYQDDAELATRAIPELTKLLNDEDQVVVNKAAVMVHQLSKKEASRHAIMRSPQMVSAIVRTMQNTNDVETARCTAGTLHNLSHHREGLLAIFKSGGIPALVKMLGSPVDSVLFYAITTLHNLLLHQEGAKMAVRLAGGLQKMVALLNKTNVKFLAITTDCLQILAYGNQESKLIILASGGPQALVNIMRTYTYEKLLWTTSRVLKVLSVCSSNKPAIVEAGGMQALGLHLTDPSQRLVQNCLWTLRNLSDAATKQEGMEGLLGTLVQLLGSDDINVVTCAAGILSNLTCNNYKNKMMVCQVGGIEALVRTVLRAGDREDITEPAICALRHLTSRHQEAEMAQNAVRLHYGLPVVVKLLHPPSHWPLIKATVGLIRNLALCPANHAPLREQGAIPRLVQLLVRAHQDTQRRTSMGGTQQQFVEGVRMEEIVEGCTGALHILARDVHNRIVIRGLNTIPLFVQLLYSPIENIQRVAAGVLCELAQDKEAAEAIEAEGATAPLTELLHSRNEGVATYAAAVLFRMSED

β-catenin [2] = molecular target: T1, β-catenin; test: SPR (Biacore)
Protocol: Biotinylated protein (beta catenin) was immobilized on a high-affinity streptavidin (SA) sensor chip (GE). Peptide at increasing concentrations was flowed over in HBS EP+ buffer at room temperature according to manufacturer's instructions. The maximum binding capacity of the surface (response at saturation) was calculated using the Biacore® system (GE) instructions and binding was measured at each concentration as a data point. The binding levels were determined over a range of analyte concentrations of at least from 20% to 80% saturation of the surface. On rates, off rates, and KD were calculated using Biacore® Insight Evaluation Software software (GE).

β-catenin [3] = molecular target: T1, β-catenin; test: competitive FP
How it was run: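 Competitive fluorescence polarization with inhibitor peptide serially diluted from 10 nM to 30 uM; polarization read at 470 nm excitation, 520 nm emission. Experiments performed three times.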

## H-MWESILDEHVQRVWG-OH [SEQ ID NO: 22]
β-catenin [1]
  Wnt Reporter EC50: > 30000 nM
β-catenin [2]
  Kd: 1370 nM

## H-MWESILDEHMQRVWRG-OH [SEQ ID NO: 23]
β-catenin [1]
  Wnt Reporter EC50: > 30000 nM
β-catenin [2]
  Kd: 1590 nM
β-catenin [3]
  Kd: ≤ 400 nM

B1: SEQ ID NO: 26 (peptide)
peptide: KMWFLISFWG
HELM: PEPTIDE1{K.M.W.F.L.I.S.F.W.G}$PEPTIDE1,PEPTIDE1,1:R3-10:R2$$$V2.0
SMILES: CC[C@H](C)[C@@H]1NC(=O)[C@H](CC(C)C)NC(=O)[C@H](Cc2ccccc2)NC(=O)[C@H](Cc2c[nH]c3ccccc23)NC(=O)[C@H](CCSC)NC(=O)[C@@H](N)CCCCNC(=O)CNC(=O)[C@H](Cc2c[nH]c3ccccc23)NC(=O)[C@H](Cc2ccccc2)NC(=O)[C@H](CO)NC1=O
β-catenin [1]
  Wnt Reporter EC50: > 7500 nM and ≤ 15000 nM
β-catenin [2]
  Kd: 110 nM

## H-MWFLISFWG-OH [SEQ ID NO: 17]
β-catenin [1]
  Wnt Reporter EC50: ≤ 7500 nM
β-catenin [2]
  Kd: 314 nM
β-catenin [3]
  Kd: > 400 nM and ≤ 1000 nM

B2: SEQ ID NO: 24 (peptide)
peptide: KMSRMWFLISFWRG
HELM: PEPTIDE1{K.M.S.R.M.W.F.L.I.S.F.W.R.G}$PEPTIDE1,PEPTIDE1,1:R3-14:R2$$$V2.0
SMILES: CC[C@H](C)[C@@H]1NC(=O)[C@H](CC(C)C)NC(=O)[C@H](Cc2ccccc2)NC(=O)[C@H](Cc2c[nH]c3ccccc23)NC(=O)[C@H](CCSC)NC(=O)[C@H](CCCNC(=N)N)NC(=O)[C@H](CO)NC(=O)[C@H](CCSC)NC(=O)[C@@H](N)CCCCNC(=O)CNC(=O)[C@H](CCCNC(=N)N)NC(=O)[C@H](Cc2c[nH]c3ccccc23)NC(=O)[C@H](Cc2ccccc2)NC(=O)[C@H](CO)NC1=O
β-catenin [1]
  Wnt Reporter EC50: > 30000 nM
β-catenin [2]
  Kd: 270 nM
β-catenin [3]
  Kd: ≤ 400 nM

B3: SEQ ID NO: 25 (peptide)
peptide: KMSRMWLLISFWG
HELM: PEPTIDE1{K.M.S.R.M.W.L.L.I.S.F.W.G}$PEPTIDE1,PEPTIDE1,1:R3-13:R2$$$V2.0
SMILES: CC[C@H](C)[C@@H]1NC(=O)[C@H](CC(C)C)NC(=O)[C@H](CC(C)C)NC(=O)[C@H](Cc2c[nH]c3ccccc23)NC(=O)[C@H](CCSC)NC(=O)[C@H](CCCNC(=N)N)NC(=O)[C@H](CO)NC(=O)[C@H](CCSC)NC(=O)[C@@H](N)CCCCNC(=O)CNC(=O)[C@H](Cc2c[nH]c3ccccc23)NC(=O)[C@H](Cc2ccccc2)NC(=O)[C@H](CO)NC1=O
β-catenin [1]
  Wnt Reporter EC50: > 7500 nM and ≤ 15000 nM
β-catenin [2]
  Kd: 112 nM

B4: SEQ ID NO: 27 (peptide)
peptide: KMSRMWYLISFWG
HELM: PEPTIDE1{K.M.S.R.M.W.Y.L.I.S.F.W.G}$PEPTIDE1,PEPTIDE1,1:R3-13:R2$$$V2.0
SMILES: CC[C@H](C)[C@@H]1NC(=O)[C@H](CC(C)C)NC(=O)[C@H](Cc2ccc(O)cc2)NC(=O)[C@H](Cc2c[nH]c3ccccc23)NC(=O)[C@H](CCSC)NC(=O)[C@H](CCCNC(=N)N)NC(=O)[C@H](CO)NC(=O)[C@H](CCSC)NC(=O)[C@@H](N)CCCCNC(=O)CNC(=O)[C@H](Cc2c[nH]c3ccccc23)NC(=O)[C@H](Cc2ccccc2)NC(=O)[C@H](CO)NC1=O
β-catenin [1]
  Wnt Reporter EC50: > 30000 nM
β-catenin [2]
  Kd: 515 nM

B5: SEQ ID NO: 28 (peptide)
peptide: KMSRMWFLISLWG
HELM: PEPTIDE1{K.M.S.R.M.W.F.L.I.S.L.W.G}$PEPTIDE1,PEPTIDE1,1:R3-13:R2$$$V2.0
SMILES: CC[C@H](C)[C@@H]1NC(=O)[C@H](CC(C)C)NC(=O)[C@H](Cc2ccccc2)NC(=O)[C@H](Cc2c[nH]c3ccccc23)NC(=O)[C@H](CCSC)NC(=O)[C@H](CCCNC(=N)N)NC(=O)[C@H](CO)NC(=O)[C@H](CCSC)NC(=O)[C@@H](N)CCCCNC(=O)CNC(=O)[C@H](Cc2c[nH]c3ccccc23)NC(=O)[C@H](CC(C)C)NC(=O)[C@H](CO)NC1=O
β-catenin [1]
  Wnt Reporter EC50: > 22500 nM and ≤ 30000 nM
β-catenin [2]
  Kd: 803 nM

B6: SEQ ID NO: 29 (peptide)
peptide: KMPLAISWFEHIG
HELM: PEPTIDE1{K.M.P.L.[meA].I.S.W.F.E.H.I.G}$PEPTIDE1,PEPTIDE1,1:R3-13:R2$$$V2.0
SMILES: CC[C@H](C)[C@@H]1NC(=O)[C@H](Cc2c[nH]cn2)NC(=O)[C@H](CCC(=O)O)NC(=O)[C@H](Cc2ccccc2)NC(=O)[C@H](Cc2c[nH]c3ccccc23)NC(=O)[C@H](CO)NC(=O)[C@H]([C@@H](C)CC)NC(=O)[C@H](C)N(C)C(=O)[C@H](CC(C)C)NC(=O)[C@@H]2CCCN2C(=O)[C@H](CCSC)NC(=O)[C@@H](N)CCCCNC(=O)CNC1=O
β-catenin [1]
  Wnt Reporter EC50: > 30000 nM
β-catenin [2]
  Kd: 1030 nM
β-catenin [3]
  Kd: > 400 nM and ≤ 1000 nM

B7: SEQ ID NO: 30 (peptide)
peptide: KMAESILDEHVQRVWG
HELM: PEPTIDE1{K.M.[meA].E.S.I.L.D.E.H.V.Q.R.V.W.G}$PEPTIDE1,PEPTIDE1,1:R3-16:R2$$$V2.0
SMILES: CC[C@H](C)[C@@H]1NC(=O)[C@H](CO)NC(=O)[C@H](CCC(=O)O)NC(=O)[C@H](C)N(C)C(=O)[C@H](CCSC)NC(=O)[C@@H](N)CCCCNC(=O)CNC(=O)[C@H](Cc2c[nH]c3ccccc23)NC(=O)[C@H](C(C)C)NC(=O)[C@H](CCCNC(=N)N)NC(=O)[C@H](CCC(N)=O)NC(=O)[C@H](C(C)C)NC(=O)[C@H](Cc2c[nH]cn2)NC(=O)[C@H](CCC(=O)O)NC(=O)[C@H](CC(=O)O)NC(=O)[C@H](CC(C)C)NC1=O
β-catenin [1]
  Wnt Reporter EC50: > 30000 nM
β-catenin [2]
  Kd: 123 nM

## H-MIRMWFLISFWG-OH [SEQ ID NO: 15]
β-catenin [1]
  Wnt Reporter EC50: ≤ 7500 nM
β-catenin [2]
  Kd: 130 nM

B8: SEQ ID NO: 467 (peptide)
peptide: Lauroyl-W[NMeA]QSILDEH[Chg]QKVW-NH2
modifications: lactam 8-12; not fully specified; printed as Lauroyl-NH-W-NMeA-QSILDE*H-Chg-QK*VW-NH2
β-catenin [1]
  Wnt Reporter EC50: ≤ 7500 nM
β-catenin [3]
  Kd: ≤ 400 nM

## WPQSILDEHGQKVW (not fully specified; Lauroyl-NH-WPQSILDE*H-Chg-QK*VW-NH2) [SEQ ID NO: 469]
β-catenin [1]
  Wnt Reporter EC50: ≤ 7500 nM
β-catenin [3]
  Kd: ≤ 400 nM

B9: SEQ ID NO: 471 (peptide)
peptide: Lauroyl-W[NMeA]QSILDEH[Chg]QKVWG-NH2
modifications: lactam 8-12; not fully specified; printed as Lauroyl-NH-W-NMeA-QSILDE*H-Chg-QK*VWG-NH2
β-catenin [1]
  Wnt Reporter EC50: ≤ 7500 nM
β-catenin [3]
  Kd: ≤ 400 nM

B10: SEQ ID NO: 1 (peptide)
peptide: GWWESILDEHVQRVWG
HELM: PEPTIDE1{[CCCCCCCCCCCCCC(=O)[*:2]].G.W.[meW].E.S.I.L.D.E.H.V.Q.R.V.W.G}$$$$V2.0
SMILES: CCCCCCCCCCCCCC(=O)NCC(=O)N[C@@H](Cc1c[nH]c2ccccc12)C(=O)N(C)[C@@H](Cc1c[nH]c2ccccc12)C(=O)N[C@@H](CCC(=O)O)C(=O)N[C@@H](CO)C(=O)N[C@H](C(=O)N[C@@H](CC(C)C)C(=O)N[C@@H](CC(=O)O)C(=O)N[C@@H](CCC(=O)O)C(=O)N[C@@H](Cc1c[nH]cn1)C(=O)N[C@H](C(=O)N[C@@H](CCC(N)=O)C(=O)N[C@@H](CCCNC(=N)N)C(=O)N[C@H](C(=O)N[C@@H](Cc1c[nH]c2ccccc12)C(=O)NCC(=O)O)C(C)C)C(C)C)[C@@H](C)CC
β-catenin [1]
  Proliferation IC50, Wnt dependent cells: 18500 nM
β-catenin [3]
  Kd: ≤ 400 nM

B11: SEQ ID NO: 45 (peptide)
peptide: MWFLISFWAG
HELM: PEPTIDE1{M.W.F.L.I.S.F.W.[meA].G}$$$$V2.0
SMILES: CC[C@H](C)[C@H](NC(=O)[C@H](CC(C)C)NC(=O)[C@H](Cc1ccccc1)NC(=O)[C@H](Cc1c[nH]c2ccccc12)NC(=O)[C@@H](N)CCSC)C(=O)N[C@@H](CO)C(=O)N[C@@H](Cc1ccccc1)C(=O)N[C@@H](Cc1c[nH]c2ccccc12)C(=O)N(C)[C@@H](C)C(=O)NCC(=O)O
β-catenin [1]
  Wnt Reporter EC50: ≤ 7500 nM
β-catenin [3]
  Kd: > 400 nM and ≤ 1000 nM

## H-MWFLISFWEG-OH [SEQ ID NO: 47]
β-catenin [1]
  Wnt Reporter EC50: ≤ 7500 nM
β-catenin [3]
  Kd: > 400 nM and ≤ 1000 nM

B12: SEQ ID NO: 266 (H2N-Tcf4(7-51)-K-CONH2) (peptide)
peptide: H-GGGDDLGANDELISFKDEGEQEEKSSENSSAERDLADVKSSLVNEK-NH2
notes: Tcf4 residues 7-51 with an added C-terminal K, amidated
β-catenin [2]
  Kd: 58.2 nM
β-catenin [3]
  Kd: ≤ 400 nM
